Measured values: article PMC5597324 (Molecular Biology of the Cell, 2017)

Target: the molecule itself
Test: SEC

B1: MBP-Stv1NT-FLAG (cytosolic N-terminal domain of the yeast Golgi V-ATPase Vo a-subunit isoform Stv1, aa 1-418) (domain or fragment, S. cerevisiae, UniProt P37296 1-418, looked up)
chain: MNQEEAIFRSADMTYVQLYIPLEVIREVTFLLGKMSVFMVMDLNKDLTAFQRGYVNQLRRFDEVERMVGFLNEVVEKHAAETWKYILHIDDEGNDIAQPDMADLINTMEPLSLENVNDMVKEITDCESRARQLDESLDSLRSKLNDLLEQRQVIFECSKFIEVNPGIAGRATNPEIEQEERDVDEFRMTPDDISETLSDAFSFDDETPQDRGALGNDLTRNQSVEDLSFLEQGYQHRYMITGSIRRTKVDILNRILWRLLRGNLIFQNFPIEEPLLEGKEKVEKDCFIIFTHGETLLKKVKRVIDSLNGKIVSLNTRSSELVDTLNRQIDDLQRILDTTEQTLHTELLVIHDQLPVWSAMTKREKYVYTTLNKFQQESQGLIAEGWVPSTELIHLQDSLKDYIETLGSEYSTVFNVIL
binding result: binds

B2: MBP-Stv1NT(K84A)-FLAG (domain or fragment, S. cerevisiae, UniProt P37296 1-418, looked up)
chain: MNQEEAIFRSADMTYVQLYIPLEVIREVTFLLGKMSVFMVMDLNKDLTAFQRGYVNQLRRFDEVERMVGFLNEVVEKHAAETWAYILHIDDEGNDIAQPDMADLINTMEPLSLENVNDMVKEITDCESRARQLDESLDSLRSKLNDLLEQRQVIFECSKFIEVNPGIAGRATNPEIEQEERDVDEFRMTPDDISETLSDAFSFDDETPQDRGALGNDLTRNQSVEDLSFLEQGYQHRYMITGSIRRTKVDILNRILWRLLRGNLIFQNFPIEEPLLEGKEKVEKDCFIIFTHGETLLKKVKRVIDSLNGKIVSLNTRSSELVDTLNRQIDDLQRILDTTEQTLHTELLVIHDQLPVWSAMTKREKYVYTTLNKFQQESQGLIAEGWVPSTELIHLQDSLKDYIETLGSEYSTVFNVIL
binding result: binds
